Blank lines part the entries; values can stand above or below the binder they belong to.
Key:
[1] = target: biotinylated Aβ1-42 (UniProt P05067 672-713, biotin (position not given)); test: pull-down
[2] = target: Hilyte Fluor 488-labeled Aβ1-42 (UniProt P05067 672-713, Hilyte Fluor 488 label (position not given)); test: native gel or EMSA
[3] = target: the molecule itself; test: native gel or EMSA

Hilyte Fluor 488-labeled Aβ1-42, sequence (P05067 672-713): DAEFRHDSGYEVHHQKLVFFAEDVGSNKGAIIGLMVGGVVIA
biotinylated Aβ1-42, sequence (P05067 672-713): as above

binding result [1]: binds | binding result [2]: binds
B1: pregnancy zone protein (PZP) (natural protein, human, UniProt P20742 26-1482, looked up)
chain: TEPQYMVLVPSLLHTEAPKKGCVLLSHLNETVTVSASLESGRENRSLFTDLVAEKDLFHCVSFTLPRISASSEVAFLSIQIKGPTQDFRKRNTVLVLNTQSLVFVQTDKPMYKPGQTVRFRVVSVDENFRPRNELIPLIYLENPRRNRIAQWQSLKLEAGINQLSFPLSSEPIQGSYRVVVQTESGGRIQHPFTVEEFVLPKFEVKVQVPKIISIMDEKVNITVCGEYTYGKPVPGLATVSLCRKLSRVLNCDKQEVCEEFSQQLNSNGCITQQVHTKMLQITNTGFEMKLRVEARIREEGTDLEVTANRISEITNIVSKLKFVKVDSHFRQGIPFFAQVLLVDGKGVPIPNKLFFISVNDANYYSNATTNEQGLAQFSINTTSISVNKLFVRVFTVHPNLCFHYSWVAEDHQGAQHTANRVFSLSGSYIHLEPVAGTLPCGHTETITAHYTLNRQAMGELSELSFHYLIMAKGVIVRSGTHTLPVESGDMKGSFALSFPVESDVAPIARMFIFAILPDGEVVGDSEKFEIENCLANKVDLSFSPAQSPPASHAHLQVAAAPQSLCALRAVDQSVLLMKPEAELSVSSVYNLLTVKDLTNFPDNVDQQEEEQGHCPRPFFIHNGAIYVPLSSNEADIYSFLKGMGLKVFTNSKIRKPKSCSVIPSVSAGAVGQGYYGAGLGVVERPYVPQLGTYNVIPLNNEQSSGPVPETVRSYFPETWIWELVAVNSSGVAEVGVTVPDTITEWKAGAFCLSEDAGLGISSTASLRAFQPFFVELTMPYSVIRGEVFTLKATVLNYLPKCIRVSVQLKASPAFLASQNTKGEESYCICGNERQTLSWTVTPKTLGNVNFSVSAEAMQSLELCGNEVVEVPEIKRKDTVIKTLLVEAEGIEQEKTFSSMTCASGANVSEQLSLKLPSNVVKESARASFSVLGDILGSAMQNIQNLLQMPYGCGEQNMVLFAPNIYVLNYLNETQQLTQEIKAKAVGYLITGYQRQLNYKHQDGSYSTFGERYGRNQGNTWLTAFVLKTFAQARSYIFIDEAHITQSLTWLSQMQKDNGCFRSSGSLLNNAIKGGVEDEATLSAYVTIALLEIPLPVTNPIVRNALFCLESAWNVAKEGTHGSHVYTKALLAYAFSLLGKQNQNREILNSLDKEAVKEDNLVHWERPQRPKAPVGHLYQTQAPSAEVEMTSYVLLAYLTAQPAPTSGDLTSATNIVKWIMKQQNAQGGFSSTQDTVVALHALSRYGAATFTRTEKTAQVTVQDSQTFSTNFQVDNNNLLLLQQISLPELPGEYVITVTGERCVYLQTSMKYNILPEKEDSPFALKVQTVPQTCDGHKAHTSFQISLTISYTGNRPASNMVIVDVKMVSGFIPLKPTVKMLERSSSVSRTEVSNNHVLIYVEQVTNQTLSFSFMVLQDIPVGDLKPAIVKVYDYYETDESVVAEYIAPCSTDTEHGNV
stoichiometry N [3]: 2

B2: transformed α2M (α2M*) (natural protein, human, UniProt P01023 24-1474, looked up)
chain: SVSGKPQYMVLVPSLLHTETTEKGCVLLSYLNETVTVSASLESVRGNRSLFTDLEAENDVLHCVAFAVPKSSSNEEVMFLTVQVKGPTQEFKKRTTVMVKNEDSLVFVQTDKSIYKPGQTVKFRVVSMDENFHPLNELIPLVYIQDPKGNRIAQWQSFQLEGGLKQFSFPLSSEPFQGSYKVVVQKKSGGRTEHPFTVEEFVLPKFEVQVTVPKIITILEEEMNVSVCGLYTYGKPVPGHVTVSICRKYSDASDCHGEDSQAFCEKFSGQLNSHGCFYQQVKTKVFQLKRKEYEMKLHTEAQIQEEGTVVELTGRQSSEITRTITKLSFVKVDSHFRQGIPFFGQVRLVDGKGVPIPNKVIFIRGNEANYYSNATTDEHGLVQFSINTTNVMGTSLTVRVNYKDRSPCYGYQWVSEEHEEAHHTAYLVFSPSKSFVHLEPMSHELPCGHTQTVQAHYILNGGTLLGLKKLSFYYLIMAKGGIVRTGTHGLLVKQEDMKGHFSISIPVKSDIAPVARLLIYAVLPTGDVIGDSAKYDVENCLANKVDLSFSPSQSLPASHAHLRVTAAPQSVCALRAVDQSVLLMKPDAELSASSVYNLLPEKDLTGFPGPLNDQDNEDCINRHNVYINGITYTPVSSTNEKDMYSFLEDMGLKAFTNSKIRKPKMCPQLQQYEMHGPEGLRVGFYESDVMGRGHARLVHVEEPHTETVRKYFPETWIWDLVVVNSAGVAEVGVTVPDTITEWKAGAFCLSEDAGLGISSTASLRAFQPFFVELTMPYSVIRGEAFTLKATVLNYLPKCIRVSVQLEASPAFLAVPVEKEQAPHCICANGRQTVSWAVTPKSLGNVNFTVSAEALESQELCGTEVPSVPEHGRKDTVIKPLLVEPEGLEKETTFNSLLCPSGGEVSEELSLKLPPNVVEESARASVSVLGDILGSAMQNTQNLLQMPYGCGEQNMVLFAPNIYVLDYLNETQQLTPEIKSKAIGYLNTGYQRQLNYKHYDGSYSTFGERYGRNQGNTWLTAFVLKTFAQARAYIFIDEAHITQALIWLSQRQKDNGCFRSSGSLLNNAIKGGVEDEVTLSAYITIALLEIPLTVTHPVVRNALFCLESAWKTAQEGDHGSHVYTKALLAYAFALAGNQDKRKEVLKSLNEEAVKKDNSVHWERPQKPKAPVGHFYEPQAPSAEVEMTSYVLLAYLTAQPAPTSEDLTSATNIVKWITKQQNAQGGFSSTQDTVVALHALSKYGAATFTRTGKAAQVTIQSSGTFSSKFQVDNNNRLLLQQVSLPELPGEYSMKVTGEGCVYLQTSLKYNILPEKEEFPFALGVQTLPQTCDEPKAHTSFQISLSVSYTGSRSASNMAIVDVKMVSGFIPLKPTVKMLERSNHVSRTEVSSNHVLIYLDKVSNQTLSLFFTVLQDVPVRDLKPAIVKVYDYYETDEFAIAEYNAPCSKDLGNA
modifications: thioester bond reacted (NH4Cl)
stoichiometry N [3]: 4

B3: hypochlorite-modified α2M (natural protein, human, UniProt P01023 24-1474, looked up)
chain: B2 chain
modifications: hypochlorite (NaOCl)-modified; residues not stated
stoichiometry N [3]: 2

From paper PMC6442606 (Proceedings of the National Academy of Sciences of the …, 2019)
